The values that follow come from the DeepSol protein solubility set.

The nature of this data set: soluble on expression in E. coli; label from the status in PepcDB or PDB records.
As for “MSASAFNFAFRRFWNSETGPKTVHFWAPTLKWGLVFAGLNDIKRPVEKVSGAQNLSLLATALIWTRWSFVIKPKNYLLASVNFFLGCTAGYHLTRIANFRIRNGDSFKQVIHYIIKGETPAAVAAKQTASTSMNKGVIGTNPPITH”, the “soluble on expression in E. coli” value is “soluble”. To “MSATVKPYQEMESGKREQVELMFNNISPKYDLLNRVLSLGIDKIWRKQALNLLKQDKPAHILDVATGTADLAIEAATRLKPTSVVGIDIAEDMLQIGRGKIAKKNLDKIIRLEKGDSEKINFPDNTFDAVIVSFGVRNFEHLEIGLAEIHRVLKPAGSIMVLEFSKPQNAPFKQVYQFYFKNILPTVGKLISKDSAAYTYLPDSVNAFPDGKAFCSILEKTGFTIKHYKPYTFGVCTAYVGKKLEHHHHHH” belongs “not soluble”; to “MSAVTYTFLGPQGTFTEAALMQVPGAADATRIPCTNVNTALERVRAGEADAAMVPIENSVEGGVTATLDAIATGQELRIIREALVPITFVLVARPGVELSDIKRISTHGHAWAQCRLWVDEHLPNADYVPGSSTAASAMGLLEDDAPYEAAICAPLIAAEQPGLNVLAEDIGDNPDAVTRFILVSRPGALPERTGADKTTVVVPLPEDHPGALMEILDQFASRGVNLSRIESRPTGQYLGHYFFSIDADGHATDSRVADALAGLHRISPATRFLGSYARADKQPAVVAPHTSDAAFASAHAWVDSILKGS”, “soluble”. For “MSAYSMLSDRIVMAKELIKRAESLSRSRKGGIEGGAKLCSKLKAELKFLQKIEAGKVAIKESHLQSTNLTHLKAIVESAENLEEVVSVLRVFGYTDTLGEKQTLVVDVVANGGHTWVKAIGRKAEALHNIWLGRGQYGDKSIIEQAEDFLQASRQQPVQYSNPHIVFAFYNSVSSPMADKLKDMGISVRGDIVAVNSLLNHPEEFQLSESESDDEGQELLQVTRVDRDNVLARVAFPTEIKVDVCKKVNLDITTLITYVSAMSYGGCHFVFKEKVLTEQAEQERKERVLPQLEAFMKDKELFACESAVKDFQSILDTLGGPGERERADVLIKRISVVPDQPSERALRLVASSKINSRSLTIFGTGDTLKAITMTANSGFVRAANNQGVKFSVFIHQPRALTESKEAFAVPLPKDLTDDSAH”, the “soluble on expression in E. coli” value is “not soluble”. To “MSCQGPVCTNLGLKPGQRLTVKGIIAPNAKSFVMNLGKDSTHLGLHFNPRFDAHGDVNLIVCNSKKMEEWGTEQRETVFPFQKGAPIEITFSINPSDLTVHLPGHQFSFPNRLGLSVFDYFDTHGDFTLRSVSWE” belongs “soluble”; to “MSCRKSAPDQCSIWQSEIGVFKMFITMNRLLRLQIMIPELFLYNETHQGLNNQNVHAVGAYFDQHDPEGLQQVVPLLNEAAANQDVVVIDSMASLVDLYTMDSRGLHEICDLATPFFQLLAHPRISMEVKLLINRLKGVLLTRDAAILQLIIQVYENIAEGDQEAEEADERVKALLAERFGNDI”, “not soluble”; to “MSCTRRQFITRVGALAAVSGMAGRVVANTLNINGVRYGMVHDESLCIGCTACMDACREVNTVPEGVSRLTIIRSEPQGTFPDVKYRFFRHSCQHCDHAPCVDVCPTGASFRDAASGIVDVNPDLCVGCQYCIAACPYRVRFIHPVSKTADKCDFCRKTNLKAGKQPACVESCPTKALTFGNLDDPNSDISRLLRQKTTYRYKLALGTKPKVYRVPFNYGEVSQ”, “not soluble”.

For the sequence “MSDAATRRLMKELAQLKSEAPEGLLVDNTSTSNDLKQWKIGVVGAEGTLYAGEVFMLQFTFGPQYPFNSPEVMFVGETIPAHPHIYSNGHICLSILSDDWTPALSVQSVCLSILSMLSSSKEKKHPIDDAIYVRTCSKNPSKTRWWFHDDSV”, the “soluble on expression in E. coli” value is given as “not soluble”. For “MSDADPKVPHRGHELLDVLARLGGSARNAQIAQVMDVSEETVRRLVKTLAKQGKVERVHGGTYLRGSQDAPMYSGALEQQPKEKTRIAKGVLELIRDGMTLFINVGSTTTYVAEQLRERRDLTIVTNSISTVASLADHNGSRVFLAGGEVSRSERGCFGRATEDFARRFAYDVLVIGADAMSPELGVLAANPREAELTRALLGNATRVIVAADYRKFSAIAPCIAAPLEAITDLVTDAAPPDALQDALDRCGVATHLAAKSGRITTRTPPPQDVGHSNTNRKTLSFPTEVSLEHHHHHH”, the “soluble on expression in E. coli” value is “soluble”. In the case of “MSDAFLSSIKNRRTIYALDKQLPVSQEKIVELVKEAVSHSPSAFNSQSSRVVVLFGAEHEQFWNIAKDELKKIVPADAFAATETKLNSFAAGAGTVLFFEDQTVVRQLQEQFALYADNFPVWSEQASGMAQFAVWTALAEHKVGASLQHYNPLVDAQTHKTWNLPESWKLRAQMPFGAIAAPAGEKAFIAESERFKVFGN”, the “soluble on expression in E. coli” value was “not soluble”. To “MSDAMPLDQTLEQLTQDEWIDIPQGWSQGRTIYGGLVAGLLMHKALSVMNDESKNLLSTSITFVGPVNEGRVRLTVEILRQGKSVTTIEARLWQDQAVQTILIASFGQPRSSEIFVLEHHHHHH” belongs “soluble”; to “MSDKISFLPPEPIQLLDEDSTEPELDIDSQQENEGPISASNSNDSTSHSNDCGATITRTRPRRSSSINANFSFQKAHVSDCTIVNGDHGTKFAVWRITVFLEPNLKAFAAKRESYKIQTYKRYSDFVRLRENLLTRIKTAKPEKLNCLQIPHLPPSVQWYSSWKYQEVNLNKDWLAKRQRGLEYFLNHIILNSSLVEMTKDILIQFLEPSKRVA”, “soluble”.

On to “MSDKPEDENTNENPGRRRFLGGMAALGAGVTLSGYVSAHERPPAEAEKHHLVGPALDRALRENVKTVVVIYAENRSFNNLFGNFPGVQKPLSSVRPADYVQRDRNGTLLDKLPPAWGGVLQVGPQTVDGVTYPVGVQFQENLPNAPFPLKGPNAEDLPLSLVTRDLWHVFYQNQMQINDGKNDRFVAWADAGGLTMGNYAQTQYSLRLWDVAKEFVLCDNFFQGAFGGSFLNHQYLISATAPIYPNAADSPAKSQIASLQSMNPLDSRLKPLDKSPASAMEGPPQFGPSAITPDNYAVNTLAPPYWPTWLRDPQNPDYSKPDLANVLVPQSHEHIGDKLSKRNVDWAWYAGAWQVTLDEFKDSTGIPKIPNFQYHHQPFNYFKQQGPQNPEERKKRLRDGGLGDESSTNRFLADAEAGKLPAVAFYKPQGNLNMHAGYADVASGDRHIDRVIKVLRNSPQWDNMVIVVTVDENGGWWDHVAPPKGDRFGPGTRIPALVISPFARKGKVDHTVYDTASILRLITRVHGLEKLDGLKRRDEAMIARGQAPMGDLTNALHFPALEHHHHHH”, for which the “soluble on expression in E. coli” value is reported as “soluble”.

Consider “MSDNALTSSRRFGGIARLYGDSALAHFSQAHVCVVGVGGVGSWAVEALARTGIGRLTLIDLDNVAESNVNRQLHALTGDFGKAKVTALRERITQINPQCEVFEIEDFVTEDNLPEYFGKGFDFVIDAIDQVRVKAAMAAYFVERKQPFVLSGGAGGQKNPALIQTADLSRVTHDPLLANLRYTLRKRYGFSRDTKANMRVPCVYSTENIVPPQSREACSADAAPQGLSCAGYGASMLVTASFGLYCAQAAVEHIADKKLEHHHHHH”, for which the “soluble on expression in E. coli” value is “soluble”.

In the case of “MSDNAQLSGLCDRFRGFYPVVIDVETAGFNAKTDALLEIAAITLKMDEQGWLMPDMTLHFHVEPFAGANLQPEALAFNGIDPSNPLRGAVSEYEALHAIFKMVRKGIKDSGCSRAIMVAHNATFDHSFMMAAAERASLKRNPFHPFVTFDTAALSGLALGQTVLSKACLAAGMEFDGEKAHSALYDTERTAVLFCEIVNRWKRLGGWPLPLPTDK”, the “soluble on expression in E. coli” value is “not soluble”. To “MSDNDTIVAQATPPGRGGVGILRISGFKAREVAETVLGKLPKPRYADYLPFKDADGSVLDQGIALWFPGPNSFTGEDVLELQGHGGPVILDLLLKRILTIPGLRIARPGEFSERAFLNDKLDLAQAEAIADLIDASSEQAARSALNSLQGAFSARVNHLVEALTHLRIYVEAAIDFPDEEIDFLSDGKIEAQLNDVIADLDAVRAEARQGSLLREGMKVVIAGRPNAGKSSLLNALAGREAAIVTDIAGTTRDVLREHIHIDGMPLHIIDTAGLREASDEVERIGIERAWQEIEQADRVLFMVDGTTTDAVDPAEIWPEFIARLPAKLPITVVRNKADITGETLGMSEVNGHALIRLSARTGEGVDVLRNHLKQSMGFDTNMEGGFLARRRHLQALEQAAEHLQQGKAQLLGAWAGELLAEELRLAQQNLSEITGEFTSDDLLGRIFSSFCIGK” belongs “soluble”; to “MSDPDLELASRREIYQRIADTPGVHFRALLDELKYAQGTLQYQLRWLADKGLIDVSDDGKYTRYYPAAEFDEADRTVMNALRREYSRRILAHLLTDSPLSTTELSERLDKAQSTVSWHLSKLAEADLVTKERDGRSVVYEVSDPDRVKYLYTVHRRSFTDKVVDRILGLWDSY”, “not soluble”. Then “MSDPRYQIDVSVVTRYLKEQSDPENSRFAFAYTITVQNNGSLSAKLLSRHWLITNGDGEVEEVRGAGVVGQQPNIDPGQSHTYSSGAVISTRVGTMQGSYQMFAEDGKRFDAEIAPFRLAVPGALHLEHHHHHH”, with “soluble”; and “MSDQPRPTVIITGASSGVGLYATKALANRGWHVIMACRNLEKAEQAAKNLQIPPEAYTILHLDLSSLASVRGFVESFRALNRPLRALVCNAAVYYPLLKEPIYSVDGYEITVATNHLGHFLLINLLLEDLKNSPESDKRLVILGTVTANRKELGGKIPIPAPPDLGNLEGFEKGFKKPIAMINGKPFKSGKAYKDSKLCNMLTARELHRRFHESTGIVFNSLYPGCVADTPLFRHHFPLFQKLFPLFQKKITGGYVSQELAGERVAMVVADPEFRQSGVHWSWGLEHHHHHH”, with “soluble”. To “MSDSCDGVECGPGKACRMLGGRPRCECAPDCSGLPARLQVCGSDGATYRDECELRAARCRGHPDLSVMYRGRCRK” belongs “soluble”; to “MSDSRYKVDVSVVTRFLAEQSQPEQNRFAFAYTITVHNNGELPAKLLSRHWIITDGDGHVEEVRGEGVVGQQPLIKVGQSHTYSSGTVMTTQVGNMQGSYQMLAEDGKRFDAVIEPFRLAVPGSLHLEHHHHHH”, “soluble”. As to “MSDSTPKTPRGFVVHTAPVGLADDGRDDFTVLASTAPATVSAVFTRSRFAGPSVVLCREAVADGQARGVVVLARNANVATGLEGEENAREVREAVARALGLPEGEMLIASTGVIGRQYPMESIREHLKTLEWPAGEGGFDRAARAIMTTDTRPKEVRVSVGGATLVGIAKGVGMLEPDMATLLTFFATDARLDPAEQDRLFRRVMDRTFNAVSIDTDTSTSDTAVLFANGLAGEVDAGEFEEALHTAALALVKDIASDGEGAAKLIEVQVTGARDDAQAKRVGKTVVNSPLVKTAVHGCDPNWGRVAMAIGKCSDDTDIDQERVTIRFGEVEVYPPKARGDQADDALRAAVAEHLRGDEVVIGIDLAIADGAFTVYGCDLTEGYVRLNSEYTT”, the “soluble on expression in E. coli” value was “soluble”. Regarding “MSDTNYAVIYDLHSHTTASDGCLTPEALVHRAVEMRVGTLAITDHDTTAAIAPAREEISRSGLALNLIPGVEISTVWENHEIHIVGLNIDITHPLMCEFLAQQTERRNQRAQLIAERLEKAQIPGALEGAQRLAQGGAVTRGHFARFLVECGKASSMADVFKKYLARGKTGYVPPQWCTIEQAIDVIHHSGGKAVLAHPGRYNLSAKWLKRLVAHFAEHHGDAMEVAQCQQSPNERTQLAALARQHHLWASQGSDFHQPCPWIELGRKLWLPAGVEGVWQLWEQPQNTTERELLEHHHHHH”, the “soluble on expression in E. coli” value is reported as “not soluble”. To “MSDTTELVDLAVIFPDLEIELKYACADNITGKAIYQQARCLLHKDAITALAKSISIAQLSGLQLVIYDAYRPQQAQAMLWQACPDPQYVVDVTVGSNHSRGTAIDLTLRDEHGNILDMGAGFDEMHERSHAYHPSVPPAAQRNRLLLNAIMTGGGFVGISSEWWHFELPQAASYPLLADQFSCFISPGTQHVS” belongs “not soluble”.
